Molecular target: the molecule itself
Experiment: AUC; purified protein dialysed against 50 mM Tris-HCl pH 7; OD280 of 1 (printed as 0.1 μM protein); 40,000 rpm, 20°C; 200 scans; analysed with Sedfit; monomer to dimer

B1: EvgS-Cyt (entire cytoplasmic region of the Escherichia coli histidine kinase EvgS, residues 553 to 1193) (domain or fragment, UniProt P30855 553-1193, looked up)
chain: WGFYLLRSVRRRKVIQGDLENQISFRKALSDSLPNPTYVVNWQGNVISHNSAFEHYFTADYYKNAMLPLENSDSPFKDVFSNAHEVTAETKENRTIYTQVFEIDNGIEKRCINHWHTLCNLPASDNAVYICGWQDITETRDLINALEVEKNKAIKATVAKSQFLATMSHEIRTPISSIMGFLELLSGSGLSKEQRVEAISLAYATGQSLLGLIGEILDVDKIESGNYQLQPQWVDIPTLVQNTCHSFGAIAASKSIALSCSSTFPEHYLVKIDPQAFKQVLSNLLSNALKFTTEGAVKITTSLGHIDDNHAVIKMTIMDSGSGLSQEEQQQLFKRYSQTSAGRQQTGSGLGLMICKELIKNMQGDLSLESHPGIGTTFTITIPVEISQQVATVEAKAEQPITLPEKLSILIADDHPTNRLLLKRQLNLLGYDVDEATDGVQALHKVSMQHYDLLITDVNMPNMDGFELTRKLREQNSSLPIWGLTANAQANEREKGLSCGMNLCLFKPLTLDVLKTHLSQLHQVAHIAPQYRHLDIEALKNNTANDLQLMQEILMTFQHETHKDLPAAFQALEAGDNRTFHQCIHRIHGAANILNLQKLINISHQLEITPVSDDSKPEILQLLNSVKEHIAELDQEIAVFC
notes: EvgS sensor histidine kinase, Escherichia coli, cytoplasmic domains comprising amino acid residues 553 to 1193; expected monomer mass printed as 72.3 kDa; Amplified from pBADEvgS and cloned NdeI-HindIII into a modified pET41c in which the GST tag is replaced by a C-terminal His8 tag; By the forward primer a start methionine precedes R553 (ATGCGCTCAGTTCGTCGTCGT); No cleavage of the tag is …
stoichiometry N: 2

Reference: article PMC5573083, “Structural and Functional Analysis of the Escherichia coli Acid-Sensing Histidine Kinase EvgS” (Journal of Bacteriology, 2017)
